Data from the supplement of paper PMC6757056.
± gives the standard deviation of the averaged measurements.

B1: library; a variant is named by its letters at N, in order (parent)
chain: GCUGUCACCGGUGUAUUACCCUAGUGGUCGACCGGUCUGAUGAGUCUNNNNNNAGACGAAACAGC

What was measured:
[1] = variants of: B1; experiment: FACS-Seq fitted mean relative fluorescence mCherry/BFP without ligand (log10 relative fluorescence); ligand: hypoxanthine (xanthine aptamer); higher = higher reporter protein expression; settings: HEK293T, ligand present: no
In short: (§1)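 Fluorescence is reported as a normalized fitted mean of sorted-bin read counts. Lentivirally transduced HEK293T libraries (mCherry ribozyme-switch reporter, EF1α-BFP marker) were enriched, treated with or without ligand for 48 h, and sorted into 6 mCherry/BFP bins for MiSeq sequencing of PCR-amplified genomic DNA. The normal fit was on log10(mCherry/BFP), scaled to five spiked-in control ribozymes.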

[2] = variants of: B1; experiment: normalized RNA/DNA level with ligand (relative to sTRSVctl = 100) (log10 (% of sTRSVctl)); ligand: hypoxanthine (xanthine aptamer); higher = less ribozyme self-cleavage, higher mRNA level; settings: ligand concentration (+) RNA-Seq: 5 mM, HEK293T, reporter: mCherry (pCS4076), ligand present: yes
Protocol: (§2)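 Hammerhead (sTRSV) ribozyme switch libraries with a ligand aptamer grafted on stem I and a randomized N4-6 loop II, cloned into the 3' UTR of mCherry and transiently transfected into HEK293T cells; RNA-Seq 72 h post transfection with ligand added 1 h before transfection; RNA read count / plasmid DNA read count normalized to the non-cleaving sTRSVctl (x100), log10; sequences with >100 DNA reads. FACS-Seq: lentiviral library sorted into 6 bins after 48 h ligand, log-normal fit mean of mCherry/BFP scaled to controls. Printed sequences are partial switch sequences.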

[3] = variants of: B1; experiment: normalized RNA/DNA level without ligand (relative to sTRSVctl = 100) (log10 (% of sTRSVctl)); ligand: hypoxanthine (xanthine aptamer); higher = less ribozyme self-cleavage, higher mRNA level; settings: HEK293T, reporter: mCherry (pCS4076), ligand present: no
Protocol: as §2

[4] = variants of: B1; experiment: FACS-Seq fitted mean relative fluorescence mCherry/BFP with ligand (log10 relative fluorescence); ligand: hypoxanthine (xanthine aptamer); ligand concentration (+) FACS-Seq: 5 mM; higher = higher reporter protein expression; settings: HEK293T, ligand present: yes
In short: as §1

GCUGUCACCGGUGUAUUACCCUAGUGGUCGACCGGUCUGAUGAGUCUAAAGUUAGACGAAACAGC
FACS-Seq fitted mean (log10) [1]: 0.306 ± 0.0051 | normalized RNA/DNA level with ligand (log10) [2]: 1.91 ± 0.026 | normalized RNA/DNA level without ligand (log10) [3]: 1.823 ± 0.0039 | FACS-Seq fitted mean (log10) [4]: 0.548 ± 0.017

GCUGUCACCGGUGUAUUACCCUAGUGGUCGACCGGUCUGAUGAGUCUAGACGGAGACGAAACAGC
FACS-Seq fitted mean (log10) [1]: 0.689 ± 0.072 | normalized RNA/DNA level with ligand (log10) [2]: 1.81 ± 0.044 | normalized RNA/DNA level without ligand (log10) [3]: 1.3085 ± 0.0012 | FACS-Seq fitted mean (log10) [4]: 0.834 ± 0.073

GCUGUCACCGGUGUAUUACCCUAGUGGUCGACCGGUCUGAUGAGUCUAAGCAAAGACGAAACAGC
FACS-Seq fitted mean (log10) [1]: 0.4932 ± 0.00094 | normalized RNA/DNA level with ligand (log10) [2]: 1.899 ± 0.0026 | normalized RNA/DNA level without ligand (log10) [3]: 1.61 ± 0.053 | FACS-Seq fitted mean (log10) [4]: 0.591 ± 0.03

GCUGUCACCGGUGUAUUACCCUAGUGGUCGACCGGUCUGAUGAGUCUAAAGCUAGACGAAACAGC
FACS-Seq fitted mean (log10) [1]: -0.307 ± 0.014 | normalized RNA/DNA level with ligand (log10) [2]: 1.94 ± 0.026 | normalized RNA/DNA level without ligand (log10) [3]: 1.85 ± 0.034 | FACS-Seq fitted mean (log10) [4]: -0.41 ± 0.022

GCUGUCACCGGUGUAUUACCCUAGUGGUCGACCGGUCUGAUGAGUCUACUCUGAGACGAAACAGC
FACS-Seq fitted mean (log10) [1]: 0.335 ± 0.0076 | normalized RNA/DNA level with ligand (log10) [2]: 1.89 ± 0.054 | normalized RNA/DNA level without ligand (log10) [3]: 1.516 ± 0.0021 | FACS-Seq fitted mean (log10) [4]: 0.677 ± 0.02

GCUGUCACCGGUGUAUUACCCUAGUGGUCGACCGGUCUGAUGAGUCUAGAAGAAGACGAAACAGC
FACS-Seq fitted mean (log10) [1]: 0.156 ± 0.021 | normalized RNA/DNA level with ligand (log10) [2]: 1.92 ± 0.029 | normalized RNA/DNA level without ligand (log10) [3]: 1.525 ± 0.013 | FACS-Seq fitted mean (log10) [4]: 0.466 ± 0.016

GCUGUCACCGGUGUAUUACCCUAGUGGUCGACCGGUCUGAUGAGUCUAUAAGAAGACGAAACAGC
FACS-Seq fitted mean (log10) [1]: 0.457 ± 0.047 | normalized RNA/DNA level with ligand (log10) [2]: 1.9 ± 0.045 | normalized RNA/DNA level without ligand (log10) [3]: 1.715 ± 0.0051 | FACS-Seq fitted mean (log10) [4]: 0.556 ± 0.068

GCUGUCACCGGUGUAUUACCCUAGUGGUCGACCGGUCUGAUGAGUCUCUCGAAAGACGAAACAGC
FACS-Seq fitted mean (log10) [1]: 0.449 ± 0.073 | normalized RNA/DNA level with ligand (log10) [2]: 1.92 ± 0.068 | normalized RNA/DNA level without ligand (log10) [3]: 1.75 ± 0.037 | FACS-Seq fitted mean (log10) [4]: 0.395 ± 0.041

GCUGUCACCGGUGUAUUACCCUAGUGGUCGACCGGUCUGAUGAGUCUAUUCCGAGACGAAACAGC
FACS-Seq fitted mean (log10) [1]: 0.126 ± 0.023 | normalized RNA/DNA level with ligand (log10) [2]: 1.93 ± 0.021 | normalized RNA/DNA level without ligand (log10) [3]: 1.589 ± 0.013 | FACS-Seq fitted mean (log10) [4]: 0.296 ± 0.031

GCUGUCACCGGUGUAUUACCCUAGUGGUCGACCGGUCUGAUGAGUCUUACGGGAGACGAAACAGC
FACS-Seq fitted mean (log10) [1]: 0.0501 ± 0.0033 | normalized RNA/DNA level with ligand (log10) [2]: 1.928 ± 0.0024 | normalized RNA/DNA level without ligand (log10) [3]: 1.509 ± 0.013 | FACS-Seq fitted mean (log10) [4]: 0.553 ± 0.062

GCUGUCACCGGUGUAUUACCCUAGUGGUCGACCGGUCUGAUGAGUCUCAACACAGACGAAACAGC
FACS-Seq fitted mean (log10) [1]: 0.465 ± 0.089 | normalized RNA/DNA level with ligand (log10) [2]: 1.895 ± 0.0089 | normalized RNA/DNA level without ligand (log10) [3]: 1.69 ± 0.047 | FACS-Seq fitted mean (log10) [4]: 0.206 ± 0.043

GCUGUCACCGGUGUAUUACCCUAGUGGUCGACCGGUCUGAUGAGUCUACUGUGAGACGAAACAGC
FACS-Seq fitted mean (log10) [1]: 0.119 ± 0.026 | normalized RNA/DNA level with ligand (log10) [2]: 1.85 ± 0.033 | normalized RNA/DNA level without ligand (log10) [3]: 1.42 ± 0.069 | FACS-Seq fitted mean (log10) [4]: 0.0877 ± 0.23

GCUGUCACCGGUGUAUUACCCUAGUGGUCGACCGGUCUGAUGAGUCUUAUGUGAGACGAAACAGC
FACS-Seq fitted mean (log10) [1]: -0.0408 ± 0.016 | normalized RNA/DNA level with ligand (log10) [2]: 1.91 ± 0.022 | normalized RNA/DNA level without ligand (log10) [3]: 1.7 ± 0.034 | FACS-Seq fitted mean (log10) [4]: 0.0665 ± 0.031

GCUGUCACCGGUGUAUUACCCUAGUGGUCGACCGGUCUGAUGAGUCUCUAAGCAGACGAAACAGC
FACS-Seq fitted mean (log10) [1]: 0.0548 ± 0.024 | normalized RNA/DNA level with ligand (log10) [2]: 1.94 ± 0.048 | normalized RNA/DNA level without ligand (log10) [3]: 1.851 ± 0.0075 | FACS-Seq fitted mean (log10) [4]: 0.039 ± 0.019

GCUGUCACCGGUGUAUUACCCUAGUGGUCGACCGGUCUGAUGAGUCUAACGCCAGACGAAACAGC
FACS-Seq fitted mean (log10) [1]: 0.0156 ± 0.023 | normalized RNA/DNA level with ligand (log10) [2]: 1.94 ± 0.048 | normalized RNA/DNA level without ligand (log10) [3]: 1.84 ± 0.037 | FACS-Seq fitted mean (log10) [4]: 0.1 ± 0.21

GCUGUCACCGGUGUAUUACCCUAGUGGUCGACCGGUCUGAUGAGUCUGAAUAGAGACGAAACAGC
FACS-Seq fitted mean (log10) [1]: 0.0583 ± 0.0095 | normalized RNA/DNA level with ligand (log10) [2]: 1.786 ± 0.011 | normalized RNA/DNA level without ligand (log10) [3]: 1.35 ± 0.026 | FACS-Seq fitted mean (log10) [4]: 0.459 ± 0.05

GCUGUCACCGGUGUAUUACCCUAGUGGUCGACCGGUCUGAUGAGUCUCCAUGAAGACGAAACAGC
FACS-Seq fitted mean (log10) [1]: 0.311 ± 0.11 | normalized RNA/DNA level with ligand (log10) [2]: 1.986 ± 0.016 | normalized RNA/DNA level without ligand (log10) [3]: 1.788 ± 0.016 | FACS-Seq fitted mean (log10) [4]: 0.414 ± 0.064

GCUGUCACCGGUGUAUUACCCUAGUGGUCGACCGGUCUGAUGAGUCUCGAACCAGACGAAACAGC
FACS-Seq fitted mean (log10) [1]: 0.676 ± 0.041 | normalized RNA/DNA level with ligand (log10) [2]: 1.94 ± 0.035 | normalized RNA/DNA level without ligand (log10) [3]: 1.89 ± 0.02 | FACS-Seq fitted mean (log10) [4]: 0.635 ± 0.062

GCUGUCACCGGUGUAUUACCCUAGUGGUCGACCGGUCUGAUGAGUCUGGUGGAAGACGAAACAGC
FACS-Seq fitted mean (log10) [1]: 0.261 ± 0.029 | normalized RNA/DNA level with ligand (log10) [2]: 1.951 ± 0.0027 | normalized RNA/DNA level without ligand (log10) [3]: 1.71 ± 0.026 | FACS-Seq fitted mean (log10) [4]: 0.43 ± 0.028

GCUGUCACCGGUGUAUUACCCUAGUGGUCGACCGGUCUGAUGAGUCUCAAUUAAGACGAAACAGC
FACS-Seq fitted mean (log10) [1]: 0.8094 ± 0.0076 | normalized RNA/DNA level with ligand (log10) [2]: 1.89 ± 0.049 | normalized RNA/DNA level without ligand (log10) [3]: 1.728 ± 0.0045 | FACS-Seq fitted mean (log10) [4]: 0.753 ± 0.03

GCUGUCACCGGUGUAUUACCCUAGUGGUCGACCGGUCUGAUGAGUCUCACAUAAGACGAAACAGC
FACS-Seq fitted mean (log10) [1]: 0.738 ± 0.084 | normalized RNA/DNA level with ligand (log10) [2]: 1.91 ± 0.07 | normalized RNA/DNA level without ligand (log10) [3]: 1.73 ± 0.047 | FACS-Seq fitted mean (log10) [4]: 0.656 ± 0.076
